Data from publication doi:10.1101/2024.03.15.584944 (bioRxiv, 2024).

Legend:
[1] = target: T1, C1q (human (endogenous in normal human serum), UniProt P02745 23-245; P02746 28-253; P02747 29-245); assay: MST
[2] = target: T1, C1q; assay: ELISA

T1 sequence (P02745 23-245, chain 1 of 3): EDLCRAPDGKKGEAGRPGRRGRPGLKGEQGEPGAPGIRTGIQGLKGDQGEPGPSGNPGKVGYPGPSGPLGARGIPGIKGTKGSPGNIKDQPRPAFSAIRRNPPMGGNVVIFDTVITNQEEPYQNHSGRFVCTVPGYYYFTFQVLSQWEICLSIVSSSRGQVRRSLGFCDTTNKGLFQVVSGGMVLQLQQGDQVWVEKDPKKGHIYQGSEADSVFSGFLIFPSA
T1 sequence (P02746 28-253, chain 2 of 3): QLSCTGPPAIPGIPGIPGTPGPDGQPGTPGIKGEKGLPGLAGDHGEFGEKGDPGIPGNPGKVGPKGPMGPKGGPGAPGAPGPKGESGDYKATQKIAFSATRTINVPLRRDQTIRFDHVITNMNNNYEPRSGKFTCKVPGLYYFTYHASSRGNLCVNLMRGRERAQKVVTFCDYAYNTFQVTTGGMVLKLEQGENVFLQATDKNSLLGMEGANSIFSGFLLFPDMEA
T1 sequence (P02747 29-245, chain 3 of 3): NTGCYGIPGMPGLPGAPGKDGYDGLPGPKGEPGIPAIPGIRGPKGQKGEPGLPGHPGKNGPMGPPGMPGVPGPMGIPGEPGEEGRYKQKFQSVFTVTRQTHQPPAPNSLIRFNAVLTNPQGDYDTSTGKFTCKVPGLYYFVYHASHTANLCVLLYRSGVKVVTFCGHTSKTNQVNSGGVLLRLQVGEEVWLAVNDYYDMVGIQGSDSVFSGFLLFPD

Binder	Kd [1] [nM]	binding result [2]
Zymogen rMASP-3 (enzyme, human, UniProt P48740-2 20-728, looked up, RED-tris-NTA dye on the His tag (in the MST only)) HTVELNNMFGQIQSPGYPDSYPSDSEVTWNITVPDGFRIKLYFMHFNLESSYLCEYDYVKVETEDQVLATFCGRETTDTEQTPGQEVVLSPGSFMSITFRSDFSNEERFTGFDAHYMAVDVDECKEREDEELSCDHYCHNYIGGYYCSCRFGYILHTDNRTCRVECSDNLFTQRTGVITSPDFPNPYPKSSECLYTIELEEGFMVNLQFEDIFDIEDHPEVPCPYDYIKIKVGPKVLGPFCGEKAPEPISTQSHSVLILFHSDNSGENRGWRLSYRAAGNECPELQPPVHGKIEPSQAKYFFKDQVLVSCDTGYKVLKDNVEMDTFQIECLKDGTWSNKIPTCKIVDCRAPGELEHGLITFSTRNNLTTYKSEIKYSCQEPYYKMLNNNTGIYTCSAQGVWMNKVLGRSLPTCLPECGQPSRSLPSLVKRIIGGRNAEPGLFPWQALIVVEDTSRVPNDKWFGSGALLSASWILTAAHVLRSQRRDTTVIPVSKEHVTVYLGLHDVRDKSGAVNSSAARVVLHPDFNIQNYNHDIALVQLQEPVPLGPHVMPVCLPRLEPEGPAPHMLGLVAGWGISNPNVTVDEIISSGTRTLSDVLQYVKLPVVPHAECKTSYESRSGNYSVTENMFCAGYYEGGKDTCLGDSGGAFVIFDDLSQRWVVQGLVSWGGPEECGSKQVYGVYTKVSNYVDWVWEQMGLPQSVVEPQVER	69.6	
rMAP-1 (natural protein, UniProt P48740-3 20-380, looked up) HTVELNNMFGQIQSPGYPDSYPSDSEVTWNITVPDGFRIKLYFMHFNLESSYLCEYDYVKVETEDQVLATFCGRETTDTEQTPGQEVVLSPGSFMSITFRSDFSNEERFTGFDAHYMAVDVDECKEREDEELSCDHYCHNYIGGYYCSCRFGYILHTDNRTCRVECSDNLFTQRTGVITSPDFPNPYPKSSECLYTIELEEGFMVNLQFEDIFDIEDHPEVPCPYDYIKIKVGPKVLGPFCGEKAPEPISTQSHSVLILFHSDNSGENRGWRLSYRAAGNECPELQPPVHGKIEPSQAKYFFKDQVLVSCDTGYKVLKDNVEMDTFQIECLKDGTWSNKIPTCKKNEIDLESELKSEQVTE		binds
rMASP-1 (enzyme, UniProt P48740 20-699, looked up) HTVELNNMFGQIQSPGYPDSYPSDSEVTWNITVPDGFRIKLYFMHFNLESSYLCEYDYVKVETEDQVLATFCGRETTDTEQTPGQEVVLSPGSFMSITFRSDFSNEERFTGFDAHYMAVDVDECKEREDEELSCDHYCHNYIGGYYCSCRFGYILHTDNRTCRVECSDNLFTQRTGVITSPDFPNPYPKSSECLYTIELEEGFMVNLQFEDIFDIEDHPEVPCPYDYIKIKVGPKVLGPFCGEKAPEPISTQSHSVLILFHSDNSGENRGWRLSYRAAGNECPELQPPVHGKIEPSQAKYFFKDQVLVSCDTGYKVLKDNVEMDTFQIECLKDGTWSNKIPTCKIVDCRAPGELEHGLITFSTRNNLTTYKSEIKYSCQEPYYKMLNNNTGIYTCSAQGVWMNKVLGRSLPTCLPVCGLPKFSRKLMARIFNGRPAQKGTTPWIAMLSHLNGQPFCGGSLLGSSWIVTAAHCLHQSLDPEDPTLRDSDLLSPSDFKIILGKHWRLRSDENEQHLGVKHTTLHPQYDPNTFENDVALVELLESPVLNAFVMPICLPEGPQQEGAMVIVSGWGKQFLQRFPETLMEIEIPIVDHSTCQKAYAPLKKKVTRDMICAGEKEGGKDACAGDSGGPMVTLNRERGQWYLVGTVSWGDDCGKKDRYGVYSYIHHNKDWIQRVTGVRN		binds
